Data on one substance can be found in publication PMC4824444.

For experiment [1], the target named is kappa-opioid peptide (KOP) receptor (human (endogenous in THP-1)) (UniProt P41145).
For experiment [2] the target is unchanged. The source holds these as a separate data set.

UniProt P41145, sequence (P41145 whole entry): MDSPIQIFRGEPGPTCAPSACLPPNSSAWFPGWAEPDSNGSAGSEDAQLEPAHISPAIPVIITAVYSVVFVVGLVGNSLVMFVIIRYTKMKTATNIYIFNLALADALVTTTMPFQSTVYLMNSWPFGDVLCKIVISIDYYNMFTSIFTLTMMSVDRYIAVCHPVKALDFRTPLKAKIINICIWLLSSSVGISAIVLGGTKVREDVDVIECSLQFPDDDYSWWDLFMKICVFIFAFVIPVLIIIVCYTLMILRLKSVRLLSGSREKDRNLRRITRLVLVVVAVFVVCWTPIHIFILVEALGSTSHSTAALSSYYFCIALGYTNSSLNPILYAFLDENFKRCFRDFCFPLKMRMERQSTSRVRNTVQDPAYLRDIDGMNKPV

Dynorphin 1-7 (peptide): the inhibition of LPS-stimulated NF-κB/p65 nuclear translocation in differentiated THP-1 cells by DYN 1-7 at 10 nM, relative to the LPS control group; reversed by the KOP receptor antagonist ML-190 (1 μM) in experiment [1] turned out to be 44%. The reduction of LPS-stimulated IL-1β and TNF-α release from differentiated THP-1 cells by DYN 1-7 (0.1 μM, 1 nM, 10 pM; 24 hr; AlphaLISA); reversed by ML-190 at 10 pM (IL-1β, TNF-α) and at 1 nM (TNF-α) in experiment [2] was 15 to 30%.
